Peptide-protein ratio (peptide:protein) and percent theoretical maximal response data for one substance are collected here from patent US20100015130A1.

The target of test [1] is GSK3β as used in the surface plasmon resonance (SPR) binding assays (Homo sapiens (Human)) (UniProt P49841). Kind of test: SPR, stoichiometry inferred from the response. (Surface plasmon resonance follows binding to a sensor surface in real time, without labels.)
Test [2] shares this target. Kind of test: SPR, peptide at 25 µM on GSK3β.

Sequence of GSK3β as used in the surface plasmon resonance (SPR) binding assays (Homo sapiens (Human)) (P49841 whole entry, form in doubt): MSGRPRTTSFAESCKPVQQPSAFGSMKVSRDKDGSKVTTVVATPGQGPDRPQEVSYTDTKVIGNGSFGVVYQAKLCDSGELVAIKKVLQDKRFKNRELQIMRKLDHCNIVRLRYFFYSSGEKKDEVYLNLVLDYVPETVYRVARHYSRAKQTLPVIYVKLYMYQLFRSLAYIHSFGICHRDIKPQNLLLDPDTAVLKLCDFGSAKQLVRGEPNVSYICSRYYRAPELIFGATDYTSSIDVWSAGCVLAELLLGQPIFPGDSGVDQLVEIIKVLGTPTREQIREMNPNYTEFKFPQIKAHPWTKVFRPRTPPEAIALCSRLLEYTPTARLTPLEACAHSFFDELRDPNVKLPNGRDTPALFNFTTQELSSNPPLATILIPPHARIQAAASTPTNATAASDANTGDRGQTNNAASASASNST

On to “L803-MTS (commercial GSK3β peptide inhibitor, Calbiochem)”, for which the peptide-protein ratio (peptide:protein) in test [1] is 2. In addition, in test [2], the percent theoretical maximal response stood at 259%.
